According to article PMC7397735 (NAR Cancer, 2020):

Target: POLQ-FLAG (DNA polymerase θ) (human, UniProt O75417 1-2590)
Assay: co-IP

Sequence of POLQ-FLAG (DNA polymerase θ) (O75417 whole entry): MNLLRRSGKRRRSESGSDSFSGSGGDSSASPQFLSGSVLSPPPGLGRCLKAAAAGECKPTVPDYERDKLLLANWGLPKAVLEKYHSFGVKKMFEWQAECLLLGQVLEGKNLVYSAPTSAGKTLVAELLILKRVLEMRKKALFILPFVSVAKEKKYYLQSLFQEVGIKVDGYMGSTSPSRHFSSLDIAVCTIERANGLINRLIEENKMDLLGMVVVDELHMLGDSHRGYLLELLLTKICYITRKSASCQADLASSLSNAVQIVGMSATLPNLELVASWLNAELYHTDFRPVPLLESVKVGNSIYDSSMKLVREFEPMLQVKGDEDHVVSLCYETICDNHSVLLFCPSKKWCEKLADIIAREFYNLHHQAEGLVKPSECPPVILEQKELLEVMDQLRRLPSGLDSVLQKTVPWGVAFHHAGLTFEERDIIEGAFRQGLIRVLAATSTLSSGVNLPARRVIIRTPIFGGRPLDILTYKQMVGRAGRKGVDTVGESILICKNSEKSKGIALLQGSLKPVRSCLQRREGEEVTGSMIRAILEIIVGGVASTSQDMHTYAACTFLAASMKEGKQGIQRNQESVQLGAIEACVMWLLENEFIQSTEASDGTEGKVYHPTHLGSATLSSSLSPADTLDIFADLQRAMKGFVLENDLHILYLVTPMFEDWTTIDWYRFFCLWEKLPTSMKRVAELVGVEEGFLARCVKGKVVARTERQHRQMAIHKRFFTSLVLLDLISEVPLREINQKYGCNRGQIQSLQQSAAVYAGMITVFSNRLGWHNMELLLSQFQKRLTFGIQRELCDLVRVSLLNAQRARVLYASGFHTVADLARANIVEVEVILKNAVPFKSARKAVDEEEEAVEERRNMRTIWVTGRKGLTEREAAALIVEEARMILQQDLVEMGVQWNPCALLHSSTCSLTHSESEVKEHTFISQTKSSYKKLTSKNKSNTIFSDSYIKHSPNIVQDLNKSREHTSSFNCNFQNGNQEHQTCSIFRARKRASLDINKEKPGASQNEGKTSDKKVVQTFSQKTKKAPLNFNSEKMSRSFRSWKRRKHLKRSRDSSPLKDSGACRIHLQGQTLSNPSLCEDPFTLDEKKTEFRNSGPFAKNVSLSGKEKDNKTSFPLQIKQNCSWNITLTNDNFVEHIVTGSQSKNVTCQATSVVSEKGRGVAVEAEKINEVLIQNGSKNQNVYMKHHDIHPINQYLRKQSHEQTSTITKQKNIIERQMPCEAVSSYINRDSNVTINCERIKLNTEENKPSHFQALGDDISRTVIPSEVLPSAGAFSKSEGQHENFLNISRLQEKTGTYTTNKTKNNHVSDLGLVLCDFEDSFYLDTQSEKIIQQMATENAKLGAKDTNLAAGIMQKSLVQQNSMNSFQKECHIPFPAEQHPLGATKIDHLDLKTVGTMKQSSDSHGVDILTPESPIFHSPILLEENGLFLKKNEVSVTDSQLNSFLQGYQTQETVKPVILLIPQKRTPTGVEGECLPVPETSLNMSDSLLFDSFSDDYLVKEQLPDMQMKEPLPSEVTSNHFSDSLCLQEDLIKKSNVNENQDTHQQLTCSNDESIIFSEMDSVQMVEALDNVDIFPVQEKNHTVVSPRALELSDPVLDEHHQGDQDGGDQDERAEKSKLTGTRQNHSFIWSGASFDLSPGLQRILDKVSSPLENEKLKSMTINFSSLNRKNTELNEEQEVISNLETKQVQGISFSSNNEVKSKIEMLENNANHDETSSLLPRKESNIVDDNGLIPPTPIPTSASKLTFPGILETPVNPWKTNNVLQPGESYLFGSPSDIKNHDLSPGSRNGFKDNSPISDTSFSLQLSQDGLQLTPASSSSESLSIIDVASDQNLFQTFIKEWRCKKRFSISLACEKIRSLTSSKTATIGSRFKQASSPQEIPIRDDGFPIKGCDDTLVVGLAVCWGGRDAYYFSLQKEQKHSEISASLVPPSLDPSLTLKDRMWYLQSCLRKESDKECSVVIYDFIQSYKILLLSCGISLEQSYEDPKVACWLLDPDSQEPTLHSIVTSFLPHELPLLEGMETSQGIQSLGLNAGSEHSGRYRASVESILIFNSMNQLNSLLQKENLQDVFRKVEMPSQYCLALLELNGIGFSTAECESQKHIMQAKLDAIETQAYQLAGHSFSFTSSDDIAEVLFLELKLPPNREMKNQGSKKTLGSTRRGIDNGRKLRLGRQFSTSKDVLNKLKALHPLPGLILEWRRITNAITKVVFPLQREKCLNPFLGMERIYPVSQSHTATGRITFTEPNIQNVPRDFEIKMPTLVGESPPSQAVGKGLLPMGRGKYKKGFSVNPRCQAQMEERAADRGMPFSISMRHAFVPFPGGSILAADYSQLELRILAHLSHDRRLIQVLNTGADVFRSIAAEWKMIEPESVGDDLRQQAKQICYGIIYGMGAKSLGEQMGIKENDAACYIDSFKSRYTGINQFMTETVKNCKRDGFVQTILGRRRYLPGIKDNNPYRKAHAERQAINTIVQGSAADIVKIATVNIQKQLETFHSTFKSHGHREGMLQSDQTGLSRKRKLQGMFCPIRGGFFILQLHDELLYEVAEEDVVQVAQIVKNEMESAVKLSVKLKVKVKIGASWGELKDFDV

- fold level in POLQ-FLAG IP, BRCA2-deficient over BRCA2-proficient cells: ~4 fold
B1: MRE11 (natural protein, human (endogenous in U2OS), UniProt P49959 1-708, looked up)
chain: MSTADALDDENTFKILVATDIHLGFMEKDAVRGNDTFVTLDEILRLAQENEVDFILLGGDLFHENKPSRKTLHTCLELLRKYCMGDRPVQFEILSDQSVNFGFSKFPWVNYQDGNLNISIPVFSIHGNHDDPTGADALCALDILSCAGFVNHFGRSMSVEKIDISPVLLQKGSTKIALYGLGSIPDERLYRMFVNKKVTMLRPKEDENSWFNLFVIHQNRSKHGSTNFIPEQFLDDFIDLVIWGHEHECKIAPTKNEQQLFYISQPGSSVVTSLSPGEAVKKHVGLLRIKGRKMNMHKIPLHTVRQFFMEDIVLANHPDIFNPDNPKVTQAIQSFCLEKIEEMLENAERERLGNSHQPEKPLVRLRVDYSGGFEPFSVLRFSQKFVDRVANPKDIIHFFRHREQKEKTGEEINFGKLITKPSEGTTLRVEDLVKQYFQTAEKNVQLSLLTERGMGEAVQEFVDKEEKDAIEELVKYQLEKTQRFLKERHIDALEDKIDEEVRRFRETRQKNTNEEDDEVREAMTRARALRSQSEESASAFSADDLMSIDLAEQMANDSDDSISAATNKGRGRGRGRRGGRGQNSASRGGSQRGRADTGLETSTRSRNSKTAVSASRNMSIIDAFKSTRQQPSRNVTTKNYSEVIEVDESDVEEDIFPTTSKTDQRWSSTSSSKIMSQSQVSKGVDFESSEDDDDDPFMNTSSLRRNRR
